In US8722052B2, “Vaccinia virus protein A46 peptide and use thereof” (priority 2008, dated 2014):

Biological target: T1, TLR9 (Mus musculus, UniProt Q9EQU3)
T1 construct: using the murine macrophage cell line RAW264.7; endogenous in cells; host or cells: RAW264.7
T1 sequence (Q9EQU3 26-1032): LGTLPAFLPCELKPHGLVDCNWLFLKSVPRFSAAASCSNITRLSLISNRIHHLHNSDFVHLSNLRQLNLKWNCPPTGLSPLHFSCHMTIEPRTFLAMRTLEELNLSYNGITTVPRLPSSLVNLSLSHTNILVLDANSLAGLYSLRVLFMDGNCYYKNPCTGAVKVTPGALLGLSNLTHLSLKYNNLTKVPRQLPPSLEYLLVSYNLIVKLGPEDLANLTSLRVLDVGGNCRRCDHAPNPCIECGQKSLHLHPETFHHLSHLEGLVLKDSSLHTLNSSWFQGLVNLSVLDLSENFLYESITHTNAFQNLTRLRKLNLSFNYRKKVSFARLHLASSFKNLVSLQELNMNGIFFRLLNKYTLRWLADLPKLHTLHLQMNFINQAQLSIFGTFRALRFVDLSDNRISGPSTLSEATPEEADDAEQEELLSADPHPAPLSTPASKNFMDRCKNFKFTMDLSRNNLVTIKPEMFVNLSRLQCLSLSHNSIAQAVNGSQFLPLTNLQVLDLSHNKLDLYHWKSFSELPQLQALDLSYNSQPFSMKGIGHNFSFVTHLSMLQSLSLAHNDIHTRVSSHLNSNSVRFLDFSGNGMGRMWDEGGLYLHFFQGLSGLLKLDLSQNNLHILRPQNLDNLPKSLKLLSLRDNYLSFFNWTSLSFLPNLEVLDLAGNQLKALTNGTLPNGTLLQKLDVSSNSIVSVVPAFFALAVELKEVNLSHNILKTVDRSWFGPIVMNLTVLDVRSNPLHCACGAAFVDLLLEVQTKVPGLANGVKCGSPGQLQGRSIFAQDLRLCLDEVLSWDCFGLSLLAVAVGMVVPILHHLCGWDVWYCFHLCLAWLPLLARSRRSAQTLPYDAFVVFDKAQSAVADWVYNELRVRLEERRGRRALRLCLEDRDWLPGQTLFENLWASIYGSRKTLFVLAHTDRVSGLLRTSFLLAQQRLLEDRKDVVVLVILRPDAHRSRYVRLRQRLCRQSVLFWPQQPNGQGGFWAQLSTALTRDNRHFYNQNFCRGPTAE
Assay: CpG-induced MIP-2 production in RAW264.7 cells, ELISA
Type: cell-based, murine
Details: peptide 5 or 20 μM 1 h before 1 μg/ml CpG, supernatant 24 h
Protocol: FIGS. 1A and B are bar charts showing the effect of peptides derived from A46 on CpG-induced MIP-2 production murine RAW264.7 cells. Cells were seeded in 96 well plates (1.5×10^5 cells/nil) at least 24 hours before treatment. A46 peptides were added to the cells at a concentration of 5 or 20 μM 1 hour before stimulating with 1 μg/ml CpG. Supernatants were collected 24 hours after stimulation and assayed for MIP2 by ELISA. No peptides were added into the control wells (black bars). (A) peptides A461-A467 (SEQ ID NO. 17 to 23). (B) peptides A468-A4614 (SEQ ID NO. 24 to 30) (excluding A4612 SEQ ID NO. 28). Data is representative of at least two experiments each performed in triplicate and is expressed as mean±s.d;
Cytokine and chemokine production from cells or mouse serum was measured by ELISA using Duoset kits from R&D systems, according to the manufacturer's instructions.
These peptides were initially screened for effects on TLR-induced gene induction in vitro using the murine macrophage cell line RAW264.7. Unmethylated CpG dinucleotides of bacterial DNA sequences are detected by TLR9, which leads to production of pro-inflammatory cytokines and chemokines, including TNFα via a MyD88-dependent pathway (Latz et al, 2004). […] The effect of the peptides on two TLR9-induced cytokines, namely TNFα and MIP-2, was measured by ELISA. […]

Sequence: KYSFKLILAEYRRRRRRRRR [Peptide A464]
- inhibition of CpG-induced MIP-2 secretion: little or no effect
